From the supplement of paper PMC9112550, “Optimization of the antimicrobial peptide Bac7 by deep mutational scanning” (BMC Biology, 2022)

system: Escherichia coli TOP10; test: shrunken log2 fold change of peptide-encoding DNA abundance (4.5 h post-induction vs induction); higher = less antimicrobial activity (less host growth inhibition); conditions: time post-induction: 4.5 h; library: site-saturation at positions 5, 18, 19, 20
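Note: peptides expressed intracellularly from a pBAD plasmid library in pooled LB shake-flask culture, induced with 0.3% L-arabinose, DNA abundance read by NGS, three biological replicates, DESeq2 with apeglm shrinkage.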

| Sequence | shrunken log2 fold change |
| --- | --- |
| RRIRMRPPRLPRPRPRPSVIPRP | -0.244 |
| RRIRPRPPRLPRPRPRPTYFPRP | -0.179 |
| RRIRVRPPRLPRPRPRPYHMPRP | -0.305 |
| RRIRDRPPRLPRPRPRPMWHPRP | -0.008 |
| RRIRVRPPRLPRPRPRPLVYPRP | -0.193 |
| RRIRDRPPRLPRPRPRPHAYPRP | -0.218 |
| RRIRTRPPRLPRPRPRPQGEPRP | -0.0823 |
| RRIRFRPPRLPRPRPRPTCLPRP | -0.249 |
| RRIRARPPRLPRPRPRPLGKPRP | 0.237 |
| RRIRQRPPRLPRPRPRPPCSPRP | 0.219 |
| RRIRDRPPRLPRPRPRPPMVPRP | 0.207 |
| RRIRMRPPRLPRPRPRPCYIPRP | -0.133 |
| RRIRTRPPRLPRPRPRPTICPRP | -0.401 |
| RRIRDRPPRLPRPRPRPERSPRP | 0.239 |
| RRIRNRPPRLPRPRPRPCTRPRP | -0.184 |
| RRIRDRPPRLPRPRPRPDPTPRP | 0.0932 |
| RRIRKRPPRLPRPRPRPHRCPRP | 0.0753 |
| RRIRARPPRLPRPRPRPQLMPRP | 0.125 |
| RRIRHRPPRLPRPRPRPDGSPRP | -0.0231 |
| RRIRPRPPRLPRPRPRPFPEPRP | 0.0208 |
| RRIRKRPPRLPRPRPRPTTGPRP | 0.733 |
| RRIRIRPPRLPRPRPRPMVLPRP | -0.071 |
| RRIRPRPPRLPRPRPRPLFLPRP | -0.0037 |
| RRIRPRPPRLPRPRPRPTIVPRP | 0.121 |
| RRIRYRPPRLPRPRPRPNNDPRP | -1.14 |

| Sequence | shrunken log2 fold change |
| --- | --- |
| RRIRLRPPRLPRPRPRPPADPRP | 0.797 |
| RRIRIRPPRLPRPRPRPYHTPRP | -1.25 |
| RRIRARPPRLPRPRPRPYMTPRP | -0.256 |
| RRIRCRPPRLPRPRPRPLAEPRP | 0.242 |
| RRIRERPPRLPRPRPRPHPHPRP | -0.167 |
| RRIRERPPRLPRPRPRPLLIPRP | -0.437 |
| RRIRQRPPRLPRPRPRPEADPRP | 0.138 |
| RRIRLRPPRLPRPRPRPFSYPRP | -0.747 |
| RRIRGRPPRLPRPRPRPLLEPRP | 1.39 |
| RRIRNRPPRLPRPRPRPQPHPRP | -0.0382 |
| RRIRTRPPRLPRPRPRPSADPRP | -0.0419 |
| RRIRFRPPRLPRPRPRPNEGPRP | -0.0411 |
| RRIRFRPPRLPRPRPRPSKLPRP | -0.42 |
| RRIRGRPPRLPRPRPRPQCGPRP | 0.601 |
| RRIRFRPPRLPRPRPRPCQWPRP | 0.0155 |
| RRIRWRPPRLPRPRPRPYAPPRP | -0.232 |
| RRIRVRPPRLPRPRPRPPLSPRP | 0.106 |
| RRIRCRPPRLPRPRPRPPQPPRP | 0.858 |
| RRIRKRPPRLPRPRPRPVKAPRP | -0.0242 |
| RRIRFRPPRLPRPRPRPFFNPRP | -0.313 |
| RRIRNRPPRLPRPRPRPGFVPRP | 0.135 |
| RRIRTRPPRLPRPRPRPLDDPRP | 0.115 |
| RRIRKRPPRLPRPRPRPESTPRP | 1.38 |
| RRIRWRPPRLPRPRPRPCVRPRP | 0.0233 |
| RRIRGRPPRLPRPRPRPIYHPRP | -0.1 |

| Sequence | shrunken log2 fold change |
| --- | --- |
| RRIRTRPPRLPRPRPRPRVQPRP | -0.2 |
| RRIRSRPPRLPRPRPRPTWAPRP | 0.518 |
| RRIRKRPPRLPRPRPRPQYNPRP | -0.67 |
| RRIRQRPPRLPRPRPRPLKRPRP | -0.0432 |
| RRIRWRPPRLPRPRPRPVTNPRP | 0.266 |
| RRIRQRPPRLPRPRPRPKRRPRP | 0.0204 |
| RRIRLRPPRLPRPRPRPLNNPRP | -0.593 |
| RRIRTRPPRLPRPRPRPWAFPRP | -0.185 |
| RRIRERPPRLPRPRPRPQLMPRP | -0.0865 |
| RRIRDRPPRLPRPRPRPRHFPRP | -0.0107 |
| RRIRHRPPRLPRPRPRPLHSPRP | -0.151 |
| RRIRARPPRLPRPRPRPYDSPRP | -0.0577 |
| RRIRMRPPRLPRPRPRPVLCPRP | 0.182 |
| RRIRARPPRLPRPRPRPHDYPRP | 0.141 |
| RRIRVRPPRLPRPRPRPKTYPRP | 0.325 |
| RRIRLRPPRLPRPRPRPNNTPRP | -0.687 |
| RRIRERPPRLPRPRPRPRYIPRP | -0.208 |
| RRIRCRPPRLPRPRPRPGGYPRP | 0.0874 |
| RRIRGRPPRLPRPRPRPQFWPRP | 0.553 |
| RRIRCRPPRLPRPRPRPNRDPRP | -0.167 |
| RRIRTRPPRLPRPRPRPKYVPRP | 0.0339 |
| RRIRVRPPRLPRPRPRPQFAPRP | 0.133 |
| RRIRWRPPRLPRPRPRPQCPPRP | -0.357 |
| RRIRGRPPRLPRPRPRPKPLPRP | 0.375 |
| RRIRKRPPRLPRPRPRPTGLPRP | 0.223 |

| Sequence | shrunken log2 fold change |
| --- | --- |
| RRIRKRPPRLPRPRPRPRNYPRP | 0.374 |
| RRIRGRPPRLPRPRPRPFKNPRP | 0.243 |
| RRIRARPPRLPRPRPRPRLIPRP | 0.235 |
| RRIRYRPPRLPRPRPRPRYMPRP | -0.33 |
| RRIRPRPPRLPRPRPRPNNQPRP | -0.353 |
| RRIRSRPPRLPRPRPRPQVWPRP | 0.675 |
| RRIRDRPPRLPRPRPRPYFKPRP | -0.381 |
| RRIRIRPPRLPRPRPRPRGAPRP | 0.175 |
| RRIRARPPRLPRPRPRPQQIPRP | 0.218 |
| RRIRNRPPRLPRPRPRPDVWPRP | -0.0172 |
| RRIRFRPPRLPRPRPRPVAWPRP | 0.119 |
| RRIRDRPPRLPRPRPRPSCPPRP | 0.00741 |
| RRIRNRPPRLPRPRPRPDTAPRP | -0.235 |
| RRIRFRPPRLPRPRPRPLNSPRP | -0.377 |
| RRIRGRPPRLPRPRPRPNCFPRP | 0.268 |
| RRIRKRPPRLPRPRPRPYLMPRP | -0.0192 |
| RRIRVRPPRLPRPRPRPVMFPRP | -0.305 |
| RRIRSRPPRLPRPRPRPYRKPRP | -0.901 |
| RRIRDRPPRLPRPRPRPQPKPRP | 0.026 |
| RRIRERPPRLPRPRPRPMIVPRP | -0.477 |
| RRIRRRPPRLPRPRPRPGQNPRP | 0.203 |
| RRIRGRPPRLPRPRPRPDIFPRP | 0.837 |
| RRIRARPPRLPRPRPRPMAAPRP | 3.13 |
| RRIRGRPPRLPRPRPRPTPQPRP | 1.05 |
| RRIRTRPPRLPRPRPRPYMIPRP | -0.478 |

| Sequence | shrunken log2 fold change |
| --- | --- |
| RRIRGRPPRLPRPRPRPISRPRP | 0.0494 |
| RRIRWRPPRLPRPRPRPRTVPRP | 0.0512 |
| RRIRIRPPRLPRPRPRPRRMPRP | -0.12 |
| RRIRLRPPRLPRPRPRPPSAPRP | 0.654 |
| RRIRCRPPRLPRPRPRPEFQPRP | 0.0126 |
| RRIRDRPPRLPRPRPRPNDHPRP | -0.53 |
| RRIRWRPPRLPRPRPRPIALPRP | 0.0387 |
| RRIRCRPPRLPRPRPRPTIWPRP | 0.105 |
| RRIRIRPPRLPRPRPRPWMGPRP | -0.185 |
| RRIRARPPRLPRPRPRPQLHPRP | 0.054 |
| RRIRSRPPRLPRPRPRPPGFPRP | 0.467 |
| RRIRYRPPRLPRPRPRPFHIPRP | -0.24 |
| RRIRPRPPRLPRPRPRPADPPRP | 0.558 |
| RRIRHRPPRLPRPRPRPGWAPRP | 0.344 |
| RRIRQRPPRLPRPRPRPFHEPRP | -0.0703 |
| RRIRVRPPRLPRPRPRPMRMPRP | -0.00559 |
| RRIRRRPPRLPRPRPRPGPTPRP | 0.678 |
| RRIRCRPPRLPRPRPRPNRMPRP | 2.23 |
| RRIRRRPPRLPRPRPRPRIFPRP | 0.0808 |
| RRIRQRPPRLPRPRPRPHTCPRP | -0.325 |
| RRIRQRPPRLPRPRPRPKDEPRP | 0.0571 |
| RRIRHRPPRLPRPRPRPPNVPRP | -0.0106 |
| RRIRSRPPRLPRPRPRPPTSPRP | 0.0457 |
| RRIRPRPPRLPRPRPRPKHIPRP | -0.301 |
| RRIRDRPPRLPRPRPRPYFYPRP | -0.793 |

| Sequence | shrunken log2 fold change |
| --- | --- |
| RRIRTRPPRLPRPRPRPGRLPRP | 0.171 |
| RRIRRRPPRLPRPRPRPRTKPRP | 0.0753 |
| RRIRYRPPRLPRPRPRPYFHPRP | -1.4 |
| RRIRQRPPRLPRPRPRPASGPRP | -0.00438 |
| RRIRGRPPRLPRPRPRPDCNPRP | 0.679 |
| RRIRLRPPRLPRPRPRPTAYPRP | -0.047 |
| RRIRMRPPRLPRPRPRPYCCPRP | -0.348 |
| RRIRYRPPRLPRPRPRPAACPRP | 0.115 |
| RRIRDRPPRLPRPRPRPPDAPRP | 0.65 |
| RRIRARPPRLPRPRPRPSSMPRP | -0.144 |
| RRIRIRPPRLPRPRPRPSRHPRP | -0.384 |
| RRIRYRPPRLPRPRPRPQMAPRP | -1.66 |
| RRIRFRPPRLPRPRPRPEKDPRP | -0.227 |
| RRIRNRPPRLPRPRPRPNVGPRP | -0.183 |
| RRIRIRPPRLPRPRPRPAPTPRP | 0.219 |
| RRIRHRPPRLPRPRPRPCDSPRP | -0.00145 |
| RRIRYRPPRLPRPRPRPQFWPRP | 0.313 |
| RRIRMRPPRLPRPRPRPSIYPRP | -0.726 |
| RRIRSRPPRLPRPRPRPMKNPRP | -0.145 |
| RRIRKRPPRLPRPRPRPLRYPRP | 0.227 |
| RRIRGRPPRLPRPRPRPNEAPRP | 1.22 |
| RRIRLRPPRLPRPRPRPPTDPRP | 0.127 |
| RRIRIRPPRLPRPRPRPACCPRP | -0.086 |
| RRIRSRPPRLPRPRPRPRNKPRP | -0.0701 |
| RRIRYRPPRLPRPRPRPHNGPRP | -0.0705 |
